Assay [1] deals with human lymph node derived calcium activated potassium channel polypeptide hKCa4, transiently expresse (human). In words: cell-based or functional assay.
Assay [2] addresses cloned hKCa4 (SEQ ID NO:3) (human). In words: cell-based or functional assay.

The record followed here is patent EP1012281B1.

Regarding “apamin (from UniProt P01500 28-45) (peptide)”, in assay [1], the Kd for block of KCa current, whole cell patch clamp was > 1000 nM.
On the same count and under the same terms, with “iberiotoxin (from UniProt P24663 1-37) (peptide)” the figure was > 1000 nM.
Same read-out and setting: with “kaliotoxin (from UniProt P24662 1-38) (peptide)” the figure was > 1000 nM; with “scyllatoxin (from UniProt P16341 1-31) (peptide)”, > 1000 nM.

B1: charybdotoxin, P13487 23-59 (peptide)
peptide: QFTNVSCTTSKECWSVCQRLHNTSRGKCMNKKCRCYS
modifications: not checked
In the case of B1, the IC50 as peptide blocker of the channel in assay [2] was in the range of 5 to 10 nM.
